Measured values taken from the supplement of paper PMC10126150.
± gives the standard deviation of the averaged measurements.

System: ATP
Experiment: switch fluorescence ratio, 500 uM ATP over buffer (Cy3 cluster intensity, sum of 5 cycles each) (fold (ratio)); higher = stronger signal-on switching upon ATP binding; sequences stand for … in TCGTCGGCAGCGTCAGATGTGTATAAGAGACAGTTTTTTTTTTTTTTTTTTTTTTTTT…TC
Details: aptamer strand: ATP DNA aptamer (quencher-CACCTGGGGGAGTATTGCGGAGGAAGG + anchor), 100 nM annealed; ATP concentration: 500 uM
How it was run: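 After annealing to 100 nM quencher-labelled ATP aptamer, Cy3-labelled switching-strand clusters on a modified Illumina MiSeq flow-cell were imaged in selection buffer. A second image followed after 15 min with 500 uM ATP at 22 °C, and five such buffer/ATP cycles were done, each separated by NaOH stripping and re-annealing. The fluorescence ratio, averaged per switch-domain sequence, is summed target-cycle over summed buffer-cycle Cy3 intensity per cluster, with clusters outside 100-1000 RFU excluded.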
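Also: ATP exposure 15 min at 22 °C before imaging.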

TCGTCTGGTT and GAGTCCATTA are within error of each other in switch fluorescence ratio: 0.988 ± 0.03 for the first, 0.981 ± 0.015 for the second.

TTGTGAAGCA and AGCGGGTTGG are the same in switch fluorescence ratio: 1.025 ± 0.0054 for the first, 1.029 ± 0.0082 for the second.

ACTTTGGTAT and TAATGGAGTA are within error of each other in switch fluorescence ratio: 0.982 ± 0.029 for the first, 1.01 ± 0.052 for the second.

GTTGTGTGAT and TGCCTGGCTG are within error of each other in switch fluorescence ratio: 0.982 ± 0.027 for the first, 0.99 ± 0.05 for the second.

First: TTAGGGAGAG
Second: ACGGTGGAGA
The switch fluorescence ratio of the first is lower: 0.996 ± 0.016 for the first, 1.05 ± 0.015 for the second.

GAGTAATGAG and TTGGGAGATT are within error of each other in switch fluorescence ratio: 0.984 ± 0.068 for the first, 0.971 ± 0.024 for the second.

TTGCTAATAT and AGCATGGTGG are within error of each other in switch fluorescence ratio: 1.038 ± 0.0093 for the first, 1.02 ± 0.046 for the second.

ATGGAGGGTG and TTTATAGTAT are within error of each other in switch fluorescence ratio: 1.04 ± 0.031 for the first, 0.993 ± 0.03 for the second.

First: ACCTGGTCTC
Second: GACGTTAGGG
The switch fluorescence ratio of the first is higher: 1.07 ± 0.027 for the first, 0.957 ± 0.042 for the second.

TGGGGGTT and AGTTGGGACT are within error of each other in switch fluorescence ratio: 0.997 ± 0.032 for the first, 1.016 ± 0.0068 for the second.

TTTTTTTGCC and CTTACGTGCC are the same in switch fluorescence ratio: 1 ± 0.058 for the first, 1 ± 0.036 for the second.

CTTTACTTCG and GGGTGCACAC are within error of each other in switch fluorescence ratio: 1.07 ± 0.027 for the first, 1.09 ± 0.095 for the second.

Compared with TGTCACTGTT, GCTTGGGGTG is higher in switch fluorescence ratio: 0.965 ± 0.022 for the first, 1.02 ± 0.024 for the second.

Compared with GCCACAGTAC, TTTGGGTCGG is lower in switch fluorescence ratio: 3.04 ± 0.098 for the first, 0.993 ± 0.018 for the second.

First: AGCTAGTTAC
Second: AGAGTATTTG
The switch fluorescence ratio of the first is higher: 1.38 ± 0.014 for the first, 0.994 ± 0.014 for the second.

GATGCGTTCG and TAATTATATT are within error of each other in switch fluorescence ratio: 1.01 ± 0.018 for the first, 0.988 ± 0.023 for the second.

Compared with TCCGAACTCG, TATTCAGAGG is lower in switch fluorescence ratio: 1.22 ± 0.019 for the first, 0.974 ± 0.02 for the second.

TTTGCACCCT and CGGTAAACAC are within error of each other in switch fluorescence ratio: 1.03 ± 0.041 for the first, 1.06 ± 0.047 for the second.

Compared with CATGATTATT, CTTACGGGAA is higher in switch fluorescence ratio: 0.986 ± 0.024 for the first, 1.15 ± 0.1 for the second.

First: TAGATTTATT
Second: AGACACATCC
The switch fluorescence ratio of the first is lower: 0.995 ± 0.028 for the first, 1.11 ± 0.022 for the second.

GAGTATGCGC and AAAGCTTTGA are within error of each other in switch fluorescence ratio: 0.996 ± 0.017 for the first, 0.983 ± 0.01 for the second.

Going from TCTGAGAGGG to TTTCGCAGGT, the switch fluorescence ratio rises from 1 ± 0.017 to 1.24 ± 0.15.

ATGGAAGGCG and TTATTAGTCG are within error of each other in switch fluorescence ratio: 1.01 ± 0.036 for the first, 1.017 ± 0.0064 for the second.

ATAAAGGGCC and TATTAGGGCA are within error of each other in switch fluorescence ratio: 0.99 ± 0.012 for the first, 0.9717 ± 0.0097 for the second.

CCAAAAGTGG and CCAGTTAGCC are the same in switch fluorescence ratio: 1.04 ± 0.044 for the first, 1.04 ± 0.13 for the second.

AAAATTGGTT and GTATGTAGCG are within error of each other in switch fluorescence ratio: 1.009 ± 0.007 for the first, 0.987 ± 0.027 for the second.

GCATGAAGTA and AAGGGTCGCA are within error of each other in switch fluorescence ratio: 0.99 ± 0.017 for the first, 1.03 ± 0.036 for the second.

TAAAAGGGAG and GGCCATATGT are within error of each other in switch fluorescence ratio: 1.03 ± 0.058 for the first, 1.02 ± 0.016 for the second.

ATGCAGAGAG and ACATGCGTGG are within error of each other in switch fluorescence ratio: 1.01 ± 0.031 for the first, 0.992 ± 0.022 for the second.

TGTCTATGGG and TAGGGTGTTT are within error of each other in switch fluorescence ratio: 0.988 ± 0.023 for the first, 0.993 ± 0.034 for the second.

ATCCTTGTGT and GTGGCGTGCT are within error of each other in switch fluorescence ratio: 0.993 ± 0.02 for the first, 0.976 ± 0.045 for the second.

Compared with ATTCCTCTAG, TTTTGGCTAT is lower in switch fluorescence ratio: 1.318 ± 0.0041 for the first, 1.017 ± 0.0015 for the second.

GCCTGTTCGG and CTCTGGGATG are within error of each other in switch fluorescence ratio: 0.977 ± 0.024 for the first, 1.01 ± 0.064 for the second.

GAGGGCTTCG and TTTTGTGAGC are within error of each other in switch fluorescence ratio: 1.02 ± 0.1 for the first, 0.996 ± 0.021 for the second.

TTATGTGTTG and AATAAGCGCA are within error of each other in switch fluorescence ratio: 1.01 ± 0.011 for the first, 0.993 ± 0.037 for the second.

First: ACGATAATTT
Second: TGAGTGGGG
The switch fluorescence ratio of the first is higher: 1.18 ± 0.035 for the first, 0.975 ± 0.05 for the second.

GCGTTGATGT and TAACAATTTT are within error of each other in switch fluorescence ratio: 0.981 ± 0.017 for the first, 1.01 ± 0.019 for the second.

Going from ATTTGCCGAC to TGTCGGTAAT, the switch fluorescence ratio rises from 0.975 ± 0.019 to 1.03 ± 0.022.

TTCATTTTTG and TTACAATCAA are within error of each other in switch fluorescence ratio: 0.998 ± 0.044 for the first, 0.999 ± 0.047 for the second.

TGTTATTACC and GATGTATAAA are the same in switch fluorescence ratio: 1 ± 0.013 for the first, 1.0015 ± 0.00099 for the second.

TTCGGGGTGC and ATGAAGGATG are within error of each other in switch fluorescence ratio: 2.17 ± 1.6 for the first, 1.01 ± 0.02 for the second.

Going from GAAATTGCGG to CTCTAGGGGC, the switch fluorescence ratio rises from 0.989 ± 0.024 to 1.128 ± 0.0065.

First: ACAGGACAGG
Second: TTCCCGATGT
The switch fluorescence ratio of the first is higher: 1.14 ± 0.014 for the first, 1.02 ± 0.0059 for the second.

GTGGCTGGG and ACATATGGAT are within error of each other in switch fluorescence ratio: 0.988 ± 0.038 for the first, 1 ± 0.015 for the second.

First: TTAAAAGTGG
Second: GATGCAGCAA
The switch fluorescence ratio of the first is lower: 1.01 ± 0.022 for the first, 1.22 ± 0.062 for the second.

TTTCTAATGC and ATCAGGGCT are within error of each other in switch fluorescence ratio: 1.03 ± 0.014 for the first, 1.01 ± 0.028 for the second.

AAGGGTCAGG and TAGTAGAAAG are within error of each other in switch fluorescence ratio: 1.02 ± 0.017 for the first, 1.002 ± 0.0032 for the second.

GGTCATATAG and GGTTTGGCGA are within error of each other in switch fluorescence ratio: 1.032 ± 0.0012 for the first, 0.988 ± 0.044 for the second.

GGGTTTGAAA and AGGGAAGATA are within error of each other in switch fluorescence ratio: 1.01 ± 0.067 for the first, 0.998 ± 0.014 for the second.

AGGACTAAGG and AAGATCATGG are within error of each other in switch fluorescence ratio: 0.98 ± 0.026 for the first, 0.98235 ± 0.00028 for the second.
